Data reported in a protein production outcome set (Wang et al. 2014).

Assay: label from the status in PepcDB records

## MKTIDLADIQAFLYRESRLLDDKAWDAWLDCYRADAVFWMPSWDDADALVTDPQREISLIYYPNRQGLEDRVFRIKTERSSATVPDTRTSHNIANVERESADGDVHTVRFNWHTLSYRYKTVSSYFGMSRYAIDFSGDAPKIVSKYVVLKNDYINQLIDIYHI
  protein production: not failed

## MGEPFGGPLMGRLVSLLPSATDLIFELGLGEQLLGVSHCCDHPGAASLPVLTRSIIGSDLPQAEIDRAVSEAVRAGRALYTVDGPLLDRLRPDLVVTQGVCEVCAVTPGTVAEAVRFLPGCLPAEQVLSLEGKTFAGILADLRALARAAGVRERGEALAAESERRWNAIRPVGVQVPEPPRVLTLEWVDPPFYGGHWVPEQVAQAGGKDVLGHAGRDSGRTSWEDVVQLDPDVIVVMCCGYGLSDNAEFARQVLSHPELRAVRAGQVWGVDANAHFSRPSLGVVRGAEVLAALLRGEESAGESVRVRAELEHHHHHH
  protein production: not failed

## MIEVVCNDRLGKKVRVKCNTDDTIGDLKKLIAAQTGTRWNKIVLKKWYTIFKDHVSLGDYEIHDGMNLELYYQ
  protein production: not failed

## VEVIRARRLLDGQASTTGYFDNIEHCIDEEFGQCSITSNDKLLLVGSGAYPMTLIQVAKETGASVIGIDIDPQAVDLGRRIVNVLAPNEDITITDQKVSELKDIKDVTHIIFSSTIPLKYSILEELYDLTNENVVVAM
  protein production: failed

## PNILYKIDNQYPYFTKNEKKIAQFILNYPHKVVNMTSQEIANQLETSSTSIIRLSKKVTPGGFNELKTRLSKFLPKEVTQYNVELVDNESTISLKNKLHSRSKAAL
  protein production: not failed

## MTQPHQIILLAHGSSDARWCETFEKLAEPTVESIENAAIAYMELAEPSLDTIVNRAKGQGVEQFTVVPLFLAAGRHLRKDVPAMIERLEAEHGVTIRLAEPIGKNPRLGLAIRDVVKEELERSEH
  protein production: not failed

## MGNKKEIAIVALTTGFVLTSVTPYGVGHAEETGQMQVEIQEDSFRTGDLTQPSKKAPENVVKDALKENTEHALSPKQVSAETGVDYKVLQKRGSYDGTTLVRMQQIYEGKEVYGHQLTAHVDKKGIIKSISGASAQNLTQEDLKKPINLSKEEAKQYIYKKYGNDTKFISEPEVKAVIFVDENHGQASNAYQVTFAATTPNYVSGTYLVNAHNGEMLKDMVQESSLKISEEYVESVKENKTSNFTSLTGTGKDDLGVTRTFGISKQTSGNYALADYTRGQGIETYDVNYRDITNEESYYPGILATSVSTTFNDPKAVSAHFLATKVYDFYKEKYKRNSFDNKGKKVVSVVHAWDSGGTNDPENWENAFSTNINNISMLLYGDPMVKAFDIAGHEFTHAVTSSESNLEFSGESGAINEALSDIMGTAIEKYINNGEFNWTIGEQTGSTFRNMKNPTAINFSEGLPYPDDYSKYNDLNGEDYGGVHFNSSIINKVAYLMAQGGTHNGVNVNGIGEDRMFDIFYYANTDELNMTSNFSELKLACLKVATNKYGANSIEVQAVQNAFDAAKITGTVKENEKTAENQAPELTVPFTITLRVGDTFDPMRNVKAVDKEDGDLTNKVKHKGDVDTSKPGTYIVEYMVVDSQGRNATATQTVIVEGNGETSDLEPKLTVPVGATIHVGDSFVPMAEVLAIDKEDGDLTSKIKVDGEVDTTKAGTYVLTYTVTDSKGHEVTAKQTVTVKVREEVKNDKPILKVPATTSITEGDQFDPLVGVSATDKEDGDLISKVAYEGTIDTTKAGTYEIIYSVRDSVGNEVNAIQKVLVKDKETSKANGLANKENKSNISNNSNSDKKEYTYKELPKTGVSTTNSAAIGILIIIVGTVLTLVRKFRKIQK
  protein production: failed

## MTRLFSRPYPLGATLNKEGCNFSIHAPGVKDIQLALFASDGSYSLHDLPNEYAGIRHTFIPDIKPGQKYGYVVTRRDEPLLISDPYAKSLDKALHYHPPYTPAKSFDMPKCVVIE
  protein production: failed

## MAANGVRRALQASSSSGKILFGRSSAATSASKIGKSAGIAFGNGSSSSTRPSLRRLTFSRVPVELSAGISLIPLHSVTASALLTSLLSLSNQNWSCLSEGKFFTCVHDLCLELKLILNFCFQTRSKCSLNW
  protein production: failed

## MKISFSEIIHNALKEDLGDKGDITTNSILINEKVNFAINTRENLVVCGIPILEEVFNMNKEHVKYEIHKKDGDITGKNSTLVSGEALAIYLLPIERVILNFIQHASGIASITRQFVDEVSGTKVKIRSTRKTTPGLRMLDKYSVCIGGGESYRDNLCDGVLIKDNHIASCGSITLAIQRLRKNLKNEYIAIECDNISQVEESLSNNVDMILLDNMSISEIKKAVDIVNGKSVLEVSGCVNIRNVRNIALTGVDYISIGCITNSFQNKDIGLDIEYNNNK
  protein production: not failed

## SDMGTSALSKKPWWTLPQNFHAPMVFHMEEDQEELIFGHGDTYLRCIEVHSHTLIQLESWFTATGQTRVTVGPHRARQWLLHMFCCVGSQDSYHHARGLEMLERVRSQPLTNDDLVTSISVPPYTGDLSLAPRISGTVCLSVPQPSPYQVIGCSGFHLSSLYP
  protein production: failed

## MSPMSRAGTTVMRRIILMLIYCCLGTGLAGCDYTLREAAIVAPVDPPGGDPVQEPTDVKYYPSDEPVRLGLEHFNRGSYGLSQRYFKDAVEKSPKDLTAWIGLAASYDRLRRFDLADQAYAQAIRLGGETVQILNDQGYSYMLRGNLSAARRKFEKAYSLDPGNPVIANNLELLNGSRRFIERPPNNQP
  protein production: failed

## MVEVYRLTKRHLDGAKSESALLNQIKIFSTCVGHGVGTIDFSEKVLEIPPAEFEAILQNGGEYLRFKLGNLSRYFEVEVFPEHAAKLLPEMMECPFKKVLEELREGYLVLRKDFKHA
  protein production: failed

## MIKRLTISPLFLILSLIAYYLSRNDILLYSTLSTILFWTFIILILPTSFYNYIKDGIVKYCKKKIFWFTVGLYISYHVILYSFFFYLLLPGSIKNISFWFSFNAGIGYSIPPPITYFLEWVSNSPAIWFFIGPYEGDVIPFSTFLGVVLALLIGLNVMKILELWGISNKLSKSIVLIPSLGVVSGSSCCVFLPSIVMYSIALSISSITATILSILSSFAYFILAYYALPIVSAIVLFHNLTMLNRLIKKLSFTM
  protein production: failed

## MFKDKKMLKYIVIYSIIAFGILLTFNMVKDEMLYEKVDYSTFMQMLDKKEVKSVNFSGNQIEITPSDSSNLKGKILYTTNPAVAGITQPDLIKDLTAAGVGFNVTKPENYQLLGLLMSWVFPLILIFFVGRMMFSKMNNKMGGGVMSFGKNNAKLYAENETGITFKDVAGQDEAKESLVEIVDFLHDTRKYVEIGAKLPKGALLVGPPGTGKTLLAKAVAGEAKVPFFSMSGSDFVEMFVGMGAARVRDLFKQAEEKAPCIVFIDEIDAIGKSRDGAIQGNDEREQTLNQLLTEMDGFDSSKGVVILAATNRPEVLDKALLRPGRFDRRIIVDRPDLIGREEILKVHSRDVKLSDDVSLEEIAKSTPGAVGADLANIVNEAALRAVKHGRKFVIQEDLDEAVEVIIAGQEKRDRILSPKEKKIVAYHEVGHALVAALLNNTDPVHKITIVPRTMGALGYTMQLPEEEKYLVSKEEMIDQISVMLGGRAAEEVVFNSITTGASNDIERATQSARNMITIYGMSERFDMMALEAMSNRYLDGRPVRNCSETTAAIADEEVLQVIKKAHEKSIKILIENRELLDEITGVLLDKETIMGDEFMEIVYSKYPEKREADEKAKKEIQSLREQALAKRKEKEEAIKKAREEALRLEEEQRKQAELKAMIEAQEEAAKLARANNEANNDDLDSSKENEEVKSNVNDRATEEKKDDSSTNNKVDGE
  protein production: failed

## MKMGMVFVFVLLTVFMAVMSSTRVSAQSNCKNELKKSLKPCFSYLTSSYPSLPDDSDCCPSLLDISKTSVDCFCQYLNSGGSILDINANFIQARRLPEICGVDPYLASVCNEGKNFLTSIYEETPIL
  protein production: failed

## MKVKDVCKLISLKPTVVEEDTPIEEIVDRILEDPVTRTVYVARDNKLVGMIPVMHLLKVSGFHFFGFIPKEELIRSSMKRLIAKNASEIMLDPVYVHMDTPLEEALKLMIDNNIQEMPVVDEKGEIVGDLNSLEILLALWKGREK
  protein production: not failed

## MDDERTVRSEVHVVVEDGEIVAIEDGYASGDEVVDATEEVVIPGLVNCHTHMYALPIRGAPLAASPESFYEALVDIWWNVDEAFTERDARLSALGSSVEMLQSGVTTFCDNYSGPNTLPGGLDAVAEGVAQTPIRGMITFETTARNSEAQARDGIAENQRFIDEAEDQYDTVSGHYCLHTLFTNTEDIVAECVDRATDDNRPIQIHLEEGLVDVHESIADYGERPVFALEDMGFFDAEVIAAHCVHSTESEIEVLAEHDVNVAHNPYSNINNAVGIADVETMQAHEMTIGLGDDGWDPDMFETMRSAVGIHKLKQRNPSGFDMATALEWATIGSAAVLGMDDAVGSIEVGKRGDFVTLDLGPNPVLDGSAPYYVVSAASRADVTRTIIDGESVYDQQSGVTGVDDSDMTAVGDASAELWERL
  protein production: failed
